Measurements from patent US20220010021A1 (Sanofi, published 2022).
Residue numbers refer to the chain shown, from its start.

T1: human beta-Klotho (KLB) (human, UniProt Q86Z14 53-997)
T1 construct: Bought protein; also called human KLB; β-Klotho
T1 sequence (looked up): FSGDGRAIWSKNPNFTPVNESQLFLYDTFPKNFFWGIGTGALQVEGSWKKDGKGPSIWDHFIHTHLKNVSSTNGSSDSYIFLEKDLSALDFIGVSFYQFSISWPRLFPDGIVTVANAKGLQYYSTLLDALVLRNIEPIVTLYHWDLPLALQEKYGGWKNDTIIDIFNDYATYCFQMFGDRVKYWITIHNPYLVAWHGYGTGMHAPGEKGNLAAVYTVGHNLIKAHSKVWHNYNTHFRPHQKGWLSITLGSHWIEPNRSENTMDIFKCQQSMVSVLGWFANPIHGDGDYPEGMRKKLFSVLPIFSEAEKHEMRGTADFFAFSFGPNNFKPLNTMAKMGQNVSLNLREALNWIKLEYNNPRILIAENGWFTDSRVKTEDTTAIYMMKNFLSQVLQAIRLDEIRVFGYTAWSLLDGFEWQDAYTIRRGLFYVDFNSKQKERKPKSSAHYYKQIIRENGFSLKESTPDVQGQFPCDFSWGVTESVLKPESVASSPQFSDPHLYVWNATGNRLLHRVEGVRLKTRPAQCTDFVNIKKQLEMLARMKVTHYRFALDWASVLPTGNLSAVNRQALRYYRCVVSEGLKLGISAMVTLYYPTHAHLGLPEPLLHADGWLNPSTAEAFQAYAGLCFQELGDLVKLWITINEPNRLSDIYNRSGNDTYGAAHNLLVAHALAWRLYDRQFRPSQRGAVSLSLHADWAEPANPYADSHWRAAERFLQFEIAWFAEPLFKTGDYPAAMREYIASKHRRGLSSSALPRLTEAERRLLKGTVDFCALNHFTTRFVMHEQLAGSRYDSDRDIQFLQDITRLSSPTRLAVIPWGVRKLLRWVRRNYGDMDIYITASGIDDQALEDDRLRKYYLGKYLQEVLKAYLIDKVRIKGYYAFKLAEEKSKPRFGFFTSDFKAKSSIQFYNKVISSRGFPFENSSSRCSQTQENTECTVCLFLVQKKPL

B1: 16H7 light chain variant S94T (antibody, IgG4, V domains shown)
VH: not shown
VL: SYVLTQPPSVSVAPGQTARITCGGNNIGSESVHWYQQKPGQAPVLVVYDDSDRPSGIPERFSGSNSGNTATLTISRVEAGDEADYYCQVWDGNTDHVVFGGGTKLTVLG
notes: IgG4 backbone
B2: 16H7 light chain variant S94V (antibody, IgG4, V domains shown)
VH: not shown
VL: B1 VL with T94V
notes: IgG4 backbone
B3: 16H7 light chain variant S94W (antibody, IgG4, V domains shown)
VH: not shown
VL: B1 VL with T94W
notes: IgG4 backbone
B4: 16H7 light chain variant S94Y (antibody, IgG4, V domains shown)
VH: not shown
VL: B1 VL with T94Y
notes: IgG4 backbone
B5: 16H7 light chain variant V32A (antibody, IgG4, V domains shown)
VH: not shown
VL: B1 VL with V32A, T94S
notes: IgG4 backbone
B6: 16H7 light chain variant V32C (antibody, IgG4, V domains shown)
VH: not shown
VL: B1 VL with V32C, T94S
notes: IgG4 backbone
B7: 16H7 light chain variant V32D (antibody, IgG4, V domains shown)
VH: not shown
VL: B1 VL with V32D, T94S
notes: IgG4 backbone
B8: 16H7 light chain variant V32F (antibody, IgG4, V domains shown)
VH: not shown
VL: B1 VL with V32F, T94S
notes: IgG4 backbone
B9: 16H7 light chain variant V32G (antibody, IgG4, V domains shown)
VH: not shown
VL: B1 VL with V32G, T94S
notes: IgG4 backbone
B10: 16H7 light chain variant V32H (antibody, IgG4, V domains shown)
VH: not shown
VL: B1 VL with V32H, T94S
notes: IgG4 backbone
B11: 16H7 light chain variant V32I (antibody, IgG4, V domains shown)
VH: not shown
VL: B1 VL with V32I, T94S
notes: IgG4 backbone
B12: 16H7 light chain variant V32K (antibody, IgG4, V domains shown)
VH: not shown
VL: B1 VL with V32K, T94S
notes: IgG4 backbone
B13: 16H7 light chain variant V32L (antibody, IgG4, V domains shown)
VH: not shown
VL: B1 VL with V32L, T94S
notes: IgG4 backbone
B14: 16H7 light chain variant V32M (antibody, IgG4, V domains shown)
VH: not shown
VL: B1 VL with V32M, T94S
notes: IgG4 backbone
B15: 16H7 light chain variant V32N (antibody, IgG4, V domains shown)
VH: not shown
VL: B1 VL with V32N, T94S
notes: IgG4 backbone
B16: 16H7 light chain variant V32Q (antibody, IgG4, V domains shown)
VH: not shown
VL: B1 VL with V32Q, T94S
notes: IgG4 backbone
B17: 16H7 light chain variant V32S (antibody, IgG4, V domains shown)
VH: not shown
VL: B1 VL with V32S, T94S
notes: IgG4 backbone
B18: 16H7 light chain variant V32T (antibody, IgG4, V domains shown)
VH: not shown
VL: B1 VL with V32T, T94S
notes: IgG4 backbone
B19: 16H7 light chain variant V32W (antibody, IgG4, V domains shown)
VH: not shown
VL: B1 VL with V32W, T94S
notes: IgG4 backbone
B20: 16H7 light chain variant V32Y (antibody, IgG4, V domains shown)
VH: not shown
VL: B1 VL with V32Y, T94S
notes: IgG4 backbone
B21: 16H7 light chain variant V97C (antibody, IgG4, V domains shown)
VH: not shown
VL: B1 VL with T94S, V97C
notes: IgG4 backbone
B22: 16H7 light chain variant V97F (antibody, IgG4, V domains shown)
VH: not shown
VL: B1 VL with T94S, V97F
notes: IgG4 backbone
B23: 16H7 light chain variant V97I (antibody, IgG4, V domains shown)
VH: not shown
VL: B1 VL with T94S, V97I
notes: IgG4 backbone
B24: 16H7 light chain variant V97L (antibody, IgG4, V domains shown)
VH: not shown
VL: B1 VL with T94S, V97L
notes: IgG4 backbone
B25: 16H7 light chain variant V97M (antibody, IgG4, V domains shown)
VH: not shown
VL: B1 VL with T94S, V97M
notes: IgG4 backbone
B26: 16H7 light chain variant V97N (antibody, IgG4, V domains shown)
VH: not shown
VL: B1 VL with T94S, V97N
notes: IgG4 backbone
B27: 16H7 light chain variant V97T (antibody, IgG4, V domains shown)
VH: not shown
VL: B1 VL with T94S, V97T
notes: IgG4 backbone
B28: 16H7 light chain variant V98C (antibody, IgG4, V domains shown)
VH: not shown
VL: B1 VL with T94S, V98C
notes: IgG4 backbone
B29: 16H7 light chain variant V98F (antibody, IgG4, V domains shown)
VH: not shown
VL: B1 VL with T94S, V98F
notes: IgG4 backbone
B30: 16H7 light chain variant V98I (antibody, IgG4, V domains shown)
VH: not shown
VL: B1 VL with T94S, V98I
notes: IgG4 backbone
B31: 16H7 light chain variant V98M (antibody, IgG4, V domains shown)
VH: not shown
VL: B1 VL with T94S, V98M
notes: IgG4 backbone
B32: 16H7 light chain variant V98N (antibody, IgG4, V domains shown)
VH: not shown
VL: B1 VL with T94S, V98N
notes: IgG4 backbone
B33: 16H7 light chain variant V98P (antibody, IgG4, V domains shown)
VH: not shown
VL: B1 VL with T94S, V98P
notes: IgG4 backbone
B34: 16H7 light chain variant V98Q (antibody, IgG4, V domains shown)
VH: not shown
VL: B1 VL with T94S, V98Q
notes: IgG4 backbone
B35: 16H7 light chain variant V98R (antibody, IgG4, V domains shown)
VH: not shown
VL: B1 VL with T94S, V98R
notes: IgG4 backbone

What was measured:
human beta-Klotho (KLB) = biological target: T1, human beta-Klotho (KLB); assay: BLI off-rate screening (Octet), crude supernatant;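 note: supernatants tested at 25 µg/mL, dissociation from biosensors recorded in D-PBS with 0.1% BSA over 1800 s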
[1] = biological target: cell surface receptor composed of FGFR1c and co-receptor beta-Klotho (KLB) (human, UniProt P11362 22-822; Q86Z14 1-1044); assay: cell-based or functional assay; for Mean E max, Luciferase reporter gene assay: reference of the scale not given here
Chain of cell surface receptor composed of FGFR1c and co-receptor beta-Klotho (KLB) (P11362 22-822, chain 1 of 2): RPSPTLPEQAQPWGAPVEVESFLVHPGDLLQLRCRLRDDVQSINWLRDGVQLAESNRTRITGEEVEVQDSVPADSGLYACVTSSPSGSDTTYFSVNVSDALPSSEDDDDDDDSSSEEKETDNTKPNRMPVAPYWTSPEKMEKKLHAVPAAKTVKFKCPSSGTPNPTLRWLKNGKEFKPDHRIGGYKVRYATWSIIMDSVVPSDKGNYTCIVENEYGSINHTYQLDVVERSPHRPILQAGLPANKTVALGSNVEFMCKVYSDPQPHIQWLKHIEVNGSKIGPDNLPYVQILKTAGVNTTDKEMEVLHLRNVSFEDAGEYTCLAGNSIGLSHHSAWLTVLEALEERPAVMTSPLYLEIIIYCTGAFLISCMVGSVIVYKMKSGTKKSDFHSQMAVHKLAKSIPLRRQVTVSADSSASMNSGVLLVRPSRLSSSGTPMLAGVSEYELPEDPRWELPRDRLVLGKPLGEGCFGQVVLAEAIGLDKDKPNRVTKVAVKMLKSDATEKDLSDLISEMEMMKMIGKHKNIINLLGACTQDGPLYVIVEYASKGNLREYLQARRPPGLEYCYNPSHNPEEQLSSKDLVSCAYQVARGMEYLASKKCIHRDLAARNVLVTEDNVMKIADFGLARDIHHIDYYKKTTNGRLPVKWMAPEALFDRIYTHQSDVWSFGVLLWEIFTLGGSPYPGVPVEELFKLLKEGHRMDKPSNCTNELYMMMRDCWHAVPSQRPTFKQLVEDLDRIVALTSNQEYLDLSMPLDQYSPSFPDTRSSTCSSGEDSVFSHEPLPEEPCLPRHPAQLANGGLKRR
Chain of cell surface receptor composed of FGFR1c and co-receptor beta-Klotho (KLB) (Q86Z14 whole entry, chain 2 of 2): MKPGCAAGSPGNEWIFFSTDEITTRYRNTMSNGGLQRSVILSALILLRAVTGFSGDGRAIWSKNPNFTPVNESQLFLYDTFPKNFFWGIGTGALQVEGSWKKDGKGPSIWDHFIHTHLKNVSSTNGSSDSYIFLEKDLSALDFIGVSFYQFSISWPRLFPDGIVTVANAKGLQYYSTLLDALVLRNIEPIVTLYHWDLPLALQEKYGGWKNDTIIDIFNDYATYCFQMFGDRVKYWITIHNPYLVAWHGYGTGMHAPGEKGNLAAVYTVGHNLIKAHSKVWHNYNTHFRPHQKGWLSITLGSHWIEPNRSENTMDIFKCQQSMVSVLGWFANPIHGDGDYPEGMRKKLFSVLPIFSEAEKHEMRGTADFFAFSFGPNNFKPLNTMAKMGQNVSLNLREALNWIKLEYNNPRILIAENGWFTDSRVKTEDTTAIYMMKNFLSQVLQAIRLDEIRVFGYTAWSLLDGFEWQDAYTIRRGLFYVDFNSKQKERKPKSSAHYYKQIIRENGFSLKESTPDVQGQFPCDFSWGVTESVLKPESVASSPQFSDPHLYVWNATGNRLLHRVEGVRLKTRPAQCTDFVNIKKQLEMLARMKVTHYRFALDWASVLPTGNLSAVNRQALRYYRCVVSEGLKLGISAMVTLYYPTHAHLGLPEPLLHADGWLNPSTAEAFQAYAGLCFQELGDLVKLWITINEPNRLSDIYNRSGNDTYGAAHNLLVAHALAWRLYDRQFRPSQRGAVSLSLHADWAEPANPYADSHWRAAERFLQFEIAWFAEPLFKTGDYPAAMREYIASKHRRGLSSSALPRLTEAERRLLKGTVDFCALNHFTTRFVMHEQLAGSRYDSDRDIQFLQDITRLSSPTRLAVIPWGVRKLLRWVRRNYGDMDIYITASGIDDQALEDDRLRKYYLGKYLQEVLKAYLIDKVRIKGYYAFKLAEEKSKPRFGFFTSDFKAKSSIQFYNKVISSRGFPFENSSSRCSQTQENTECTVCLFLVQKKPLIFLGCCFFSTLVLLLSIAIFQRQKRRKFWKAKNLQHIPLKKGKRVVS

Binder	koff (human beta-Klotho (KLB))	Mean E max, Luciferase reporter gene assay [1]	Mean EC50, Luciferase reporter gene assay [1]
B1	3.2e-05 s⁻¹	109%	0.116 nM
B2	2.8e-05 s⁻¹	108%	0.119 nM
B3	4.3e-05 s⁻¹	103%	0.159 nM
B4	6.2e-05 s⁻¹	100%	0.098 nM
B5	4.7e-05 s⁻¹	108%	0.144 nM
B6	5.1e-06 s⁻¹	99%	0.108 nM
B7	0.00025 s⁻¹	92%	0.141 nM
B8	4.1e-05 s⁻¹	100%	0.102 nM
B9	6.5e-05 s⁻¹	103%	0.24 nM
B10	7.3e-05 s⁻¹	100%	0.147 nM
B11	2e-05 s⁻¹	113%	0.133 nM
B12	2.6e-05 s⁻¹	101%	0.158 nM
B13	4.9e-05 s⁻¹	104%	0.126 nM
B14	9.5e-05 s⁻¹	103%	0.135 nM
B15	4.4e-05 s⁻¹	104%	0.123 nM
B16	0.00025 s⁻¹	91%	0.166 nM
B17	5.1e-05 s⁻¹	102%	0.124 nM
B18	7e-05 s⁻¹	107%	0.107 nM

Binder	koff (human beta-Klotho (KLB))	Mean E max, Luciferase reporter gene assay [1]	Mean EC50, Luciferase reporter gene assay [1]
B19	0.00023 s⁻¹	102%	0.145 nM
B20	1.9e-05 s⁻¹	106%	0.103 nM
B21	0.00023 s⁻¹	104%	0.19 nM
B22	2.1e-05 s⁻¹	45%	3.02 nM
B23	1.7e-05 s⁻¹	110%	0.12 nM
B24	5.9e-05 s⁻¹	110%	0.129 nM
B25	3.3e-05 s⁻¹	103%	0.214 nM
B26	0.00033 s⁻¹	95%	0.206 nM
B27	0.0001 s⁻¹	99%	0.142 nM
B28	6.4e-05 s⁻¹	100%	0.105 nM
B29	1.6e-05 s⁻¹	102%	0.161 nM
B30	3.3e-05 s⁻¹	116%	0.105 nM
B31	7.2e-05 s⁻¹	108%	0.114 nM
B32	2.1e-05 s⁻¹	112%	0.111 nM
B33	7.3e-05 s⁻¹	89%	0.131 nM
B34	3.7e-05 s⁻¹	111%	0.121 nM
B35	0.00011 s⁻¹	99%	0.099 nM
